{"source": "IntAct's records for PubMed 19503079", "key": {"[1]": {"molecular_target": "T1, atxr6_arath ATXR6 (UniProt Q9FNE9)", "T1 sequence": "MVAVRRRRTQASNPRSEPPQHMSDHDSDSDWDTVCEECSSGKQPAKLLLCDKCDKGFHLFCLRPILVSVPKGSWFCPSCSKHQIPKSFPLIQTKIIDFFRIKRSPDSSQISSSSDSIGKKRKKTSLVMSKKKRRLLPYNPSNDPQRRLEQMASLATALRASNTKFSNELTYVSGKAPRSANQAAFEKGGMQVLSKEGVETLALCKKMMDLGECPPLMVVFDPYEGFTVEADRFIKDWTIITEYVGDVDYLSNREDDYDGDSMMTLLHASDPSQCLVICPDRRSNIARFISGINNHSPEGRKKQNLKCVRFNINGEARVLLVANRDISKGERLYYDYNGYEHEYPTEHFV"}, "[2]": {"molecular_target": "T2, atxr5_arath ATXR5 (UniProt Q8VZJ1)", "T2 sequence": "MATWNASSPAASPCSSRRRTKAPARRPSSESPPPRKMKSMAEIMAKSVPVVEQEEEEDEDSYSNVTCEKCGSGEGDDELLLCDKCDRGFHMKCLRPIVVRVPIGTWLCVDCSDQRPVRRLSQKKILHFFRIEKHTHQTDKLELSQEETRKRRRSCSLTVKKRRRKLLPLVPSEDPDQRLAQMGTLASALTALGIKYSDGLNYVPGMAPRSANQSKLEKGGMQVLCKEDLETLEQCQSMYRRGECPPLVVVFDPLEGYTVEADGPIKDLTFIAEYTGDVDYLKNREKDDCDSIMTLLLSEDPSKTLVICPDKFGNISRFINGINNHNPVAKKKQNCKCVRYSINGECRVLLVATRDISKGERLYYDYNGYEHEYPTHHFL"}}}
{"substance": "Histone H3.1 (Arabidopsis thaliana (Mouse-ear cress)) (from UniProt P59226) K28A", "values": [{"measurement": "effect of a mutation on the interaction", "setting": "[1]", "value": "disrupting interaction"}, {"measurement": "effect of a mutation on the interaction", "setting": "[2]", "value": "disrupting interaction"}]}
